Measured values published in paper PMC4359589.

Target: VipB (Vibrio cholerae)
Experiment: cryo-EM structure

With VipA (natural protein) the stoichiometry N was 1.
